Measured values as given in patent publication US20250215104A1 (WALDEN BIOSCIENCES, published 2025).

Molecular target: T1, human soluble urokinase plasminogen activator receptor (suPAR) (human, UniProt Q03405 23-303, limits assumed)
T1 construct: also called hsuPAR; human suPAR
Assay: dissociation rate (kdis) on human suPAR; method not stated

T1 sequence (Q03405 23-303 limits assumed): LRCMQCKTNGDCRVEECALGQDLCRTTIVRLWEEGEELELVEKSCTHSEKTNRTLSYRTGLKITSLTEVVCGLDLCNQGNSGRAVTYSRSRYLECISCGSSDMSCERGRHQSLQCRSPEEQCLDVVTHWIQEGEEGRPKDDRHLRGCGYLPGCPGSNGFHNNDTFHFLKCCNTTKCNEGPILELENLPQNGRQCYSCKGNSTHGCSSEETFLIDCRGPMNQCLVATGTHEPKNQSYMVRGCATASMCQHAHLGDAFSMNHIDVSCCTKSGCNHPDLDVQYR

B1: WAb0006 (antibody, V domains shown)
VH: QVQLVQSGAEVKKPGASVKVSCKASGYTFTSHYIQWVRQAPGQGLEWMGWIDHENGNTIYDQKFQGRVTMTRDTSTSTVYMELSSLRSEDTAVYYCARGTDVDWFVYWGQGTLVTVSS
VL: DIQMTQSPSSLSASVGDRVTITCSARSSVSYMYWYQQKPGKAPKLLIYRTSNLASGVPSRFSGSGSGTDFTLTISSLQPEDFATYYCQQYHSYPPTFGGGTKVEIK
notes: light chain is WAL0921 (human kappa) with Q27S; also called WAb CD0006; original backup candidate
For B1, which koff is on record?
The koff was 3.39e-07 s⁻¹.

B2: WAb0012 (antibody, V domains shown)
VH: QVQLVQSGAEVKKPGASVKVSCKASGYTFTGYYMHWVRQAPGQGLEWMGWIDHENGNTIYDQKFQGRVTMTRDTSTSTVYMELSSLRSEDTAVYYCARGYDVDWFVYWGQGTLVTVSS
VL: DIQMTQSPSSLSASVGDRVTITCSARQSISYMYWYQQKPGKAPKLLIYRTSNLASGVPSRFSGSGSGTDFTLTISSLQPEDFATYYCQQYHSYPPTFGGGTKVEIK
notes: constant regions not tied to this antibody; also called WAb CD0012
Which koff does the source give for B2 here?
Its koff is 2.93e-07 s⁻¹.

B3: WAb0017 (antibody, V domains shown)
VH: QVQLVQSGAEVKKPGASVKVSCKASGYTFSAYYMHWVRQAPGQGLEWMGWIDHENGNTIYDQKFQGRVTMTRDTSTSTVYMELSSLRSEDTAVYYCARGYDVDWFVYWGQGTLVTVSS
VL: DIQMTQSPSSLSASVGDRVTITCRARQSVSYMYWYQQKPGKAPKLLIYRTSNLASGVPSRFSGSGSGTDFTLTISSLQPEDFATYYCQQYHSYPPTFGGGTKVEIK
notes: constant regions not tied to this antibody; also called WAb CD0017
With B3 as the binder, how does the koff read?
Its koff is 3.63e-07 s⁻¹.

B4: WAb0020 (antibody, V domains shown)
VH: QVQLVQSGAEVKKPGASVKVSCKASGYTFTSHYVHWVRQAPGQGLEWMGWIDHENGNTIYDQKFQGRVTMTRDTSTSTVYMELSSLRSEDTAVYYCARGYDVDWFVYWGQGTLVTVSS
VL: DIQMTQSPSSLSASVGDRVTITCSARSSVSYMYWYQQKPGKAPKLLIYRTSNLASGVPSRFSGSGSGTDFTLTISSLQPEDFATYYCQQYHSYPPTFGGGTKVEIK
notes: constant regions not tied to this antibody; also called WAb CD0020
B4 was tested. Which koff did it give?
Its koff is 3.42e-07 s⁻¹.

B5: WAb0016 (antibody, V domains shown)
VH: QVQLVQSGAEVKKPGASVKVSCKASGYTFTNYYIHWVRQAPGQGLEWMGWISPSSGGTKYAQKFQGRVTMTRDTSTSTVYMELSSLRSEDTAVYYCARGYDVDWFVYWGQGTLVTVSS
VL: DIQMTQSPSSLSASVGDRVTITCSARSSVSYMYWYQQKPGKAPKLLIYRTSNLASGVPSRFSGSGSGTDFTLTISSLQPEDFATYYCQQYHSYPPTFGGGTKVEIK
notes: constant regions not tied to this antibody; also called WAb CD0016
How did the koff turn out when B5 was run?
The koff was 0.000213 s⁻¹.

B6: WAb0008 (antibody, V domains shown)
VH: QVQLVQSGAEVKKPGASVKVSCKASGYTFTSHYIQWVRQAPGQGLEWMGWIDHENGNTIYDQKFQGRVTMTRDTSTSTVYMELSSLRSEDTAVYYCARGTDVDWFVYWGQGTLVTVSS
VL: DIQMTQSPSSLSASVGDRVTITCSARSSVSYMYWYQQKPGKAPKLLIYRTSNLASGVPSRFSGSGSGTDFTLTISSLQPEDFATYYCQQYHSYPPTFGGGTKVEIK
notes: WAb0006 VL + mouse kappa constant; also called WAb CD0008; WAb008
With B6 as the binder, how does the koff read?
The koff was 2.83e-07 s⁻¹.

B7: WAb0013 (antibody, V domains shown)
VH: QVQLVQSGAEVKKPGASVKVSCKASGYTFTNYYMHWVRQAPGQGLEWMGWIDHENGSTIYAQKFQGRVTMTRDTSTSTVYMELSSLRSEDTAVYYCARGYDVDWFVYWGQGTLVTVSS
VL: DIQMTQSPSSLSASVGDRVTITCSARQSVSYMYWYQQKPGKAPKLLIYRTSNLASGVPSRFSGSGSGTDFTLTISSLQPEDFATYYCQQYHSYPPTFGGGTKVEIK
notes: constant regions not tied to this antibody; also called WAb CD0013
For B7, which koff is on record?
Its koff is 2.44e-07 s⁻¹.

B8: WAb0007 (antibody, V domains shown)
VH: QVQLVQSGAEVKKPGASVKVSCKASGYTFIGSYVHWVRQAPGQGLEWMGWIDHENGNTIYDQKFQGRVTMTRDTSTSTVYMELSSLRSEDTAVYYCARGYDVDWFVYWGQGTLVTVSS
VL: DIQMTQSPSSLSASVGDRVTITCSARSSVSYMYWYQQKPGKAPKLLIYRTSSLASGVPSRFSGSGSGTDFTLTISSLQPEDFATYYCQQYHSYPPTFGGGTKVEIK
notes: also called WAb CD0007
B8 was tested. Which koff did it give?
The koff was 2.76e-07 s⁻¹.

B9: WAb0019 (antibody, V domains shown)
VH: QVQLVQSGAEVKKPGASVKVSCKASGYTFSSYYMHWVRQAPGQGLEWMGWIDHENGNTIYAQKFQGRVTMTRDTSTSTVYMELSSLRSEDTAVYYCARGYDVDWFVYWGQGTLVTVSS
VL: DIQMTQSPSSLSASVGDRVTITCSARSSVSYMYWYQQKPGKAPKLLIYRTSNLASGVPSRFSGSGSGTDFTLTISSLQPEDFATYYCQQYHSYPPTFGGGTKVEIK
notes: constant regions not tied to this antibody; also called WAb CD0019
For B9, which koff is on record?
Its koff is 3.43e-07 s⁻¹.

B10: WAb0015 (antibody, V domains shown)
VH: QVQLVQSGAEVKKPGASVKVSCKASGYTFTNYYIHWVRQAPGQGLEWMGWISPDSGGTKYAQKFQGRVTMTRDTSTSTVYMELSSLRSEDTAVYYCARGYDVDWFVYWGQGTLVTVSS
VL: DIQMTQSPSSLSASVGDRVTITCSARSSVSYMYWYQQKPGKAPKLLIYRTSNLASGVPSRFSGSGSGTDFTLTISSLQPEDFATYYCQQYHSYPPTFGGGTKVEIK
notes: constant regions not tied to this antibody; also called WAb CD0015
Which koff does the source give for B10 here?
Its koff is 2.97e-07 s⁻¹.

B11: WAb0018 (antibody, V domains shown)
VH: QVQLVQSGAEVKKPGASVKVSCKASGYTFTNYYMHWVRQAPGQGLEWMGWIDHENGNTIYDQKFQGRVTMTRDTSTSTVYMELSSLRSEDTAVYYCARGYDVDWFVYWGQGTLVTVSS
VL: DIQMTQSPSSLSASVGDRVTITCSASSSISYMYWYQQKPGKAPKLLIYRTSNLASGVPSRFSGSGSGTDFTLTISSLQPEDFATYYCQQYHSYPPTFGGGTKVEIK
notes: constant regions not tied to this antibody; also called WAb CD0018
With B11 as the binder, how does the koff read?
Its koff is 2.6e-07 s⁻¹.

B12: WAb0011 (antibody, V domains shown)
VH: QVQLVQSGAEVKKPGASVKVSCKASGYTFTGSYVHWVRQAPGQGLEWMGWIDHENGNTIYDQKFQGRVTMTRDTSTSTVYMELSSLRSEDTAVYYCARGYDVDWFVYWGQGTLVTVSS
VL: DIQMTQSPSSLSASVGDRVTITCSARSSVSYMYWYQQKPGKAPKLLIYRTSNLASGVPSRFSGSGSGTDFTLTISSLQPEDFATYYCQQYHSYPPTFGGGTKVEIK
notes: constant regions not tied to this antibody; also called WAb CD0011
With B12 as the binder, how does the koff read?
Its koff is 2.36e-07 s⁻¹.

B13: WAb0010 (antibody, V domains shown)
VH: QVQLVQSGAEVKKPGASVKVSCKASGYTFTGNYVHWVRQAPGQGLEWMGWIDHENGNTIYDQKFQGRVTMTRDTSTSTVYMELSSLRSEDTAVYYCARGYDVDWFVYWGQGTLVTVSS
VL: DIQMTQSPSSLSASVGDRVTITCSARSSVSYMYWYQQKPGKAPKLLIYRTSNLASGVPSRFSGSGSGTDFTLTISSLQPEDFATYYCQQYHSYPPTFGGGTKVEIK
notes: constant regions not tied to this antibody; also called WAb CD0010
Which koff does the source give for B13 here?
Its koff is 3.89e-07 s⁻¹.

B14: WAb0014 (antibody)
heavy: not shown
light: DIQMTQSPSSLSASVGDRVTITCSARQSVSYMYWYQQKPGKAPKLLIYRTSNLASGVPSRFSGSGSGTDFTLTISSLQPEDFATYYCQQYHSYPPTFGGGTKVEIKRTVAAPSVFIFPPSDEQLKSGTASVVCLLNNFYPREAKVQWKVDNALQSGNSQESVTEQDSKDSTYSLSSTLTLSKADYEKHKVYACEVTHQGLSSPVTKSFNRGEC
notes: also called original candidate; WAL0921 without P330G
Which koff does the source give for B14 here?
The koff was 2.57e-07 s⁻¹.
